Assay results: patent CN108948205A (BEIJING JINDAI BIOTECHNOLOGY CO LTD, dated 2018)

Key:
[1] = target: T1, IDH1 R132H突变抗原多肽 (编号 U6184CB080-D); test: SPR, Biacore 8k, peptide on CM5 chip; reference H09
T1 sequence (peptide): KPIIIGHHAYGDQYC

[2] = target: T2, IDH1野生型 (wild-type IDH1 in glioma tissue sections) (UniProt O75874 2-414); test: immunohistochemistry on glioma paraffin sections
T2 construct: Endogenous protein in patients' glioma paraffin sections; also called IDH1 R132H焦磷酸测序野生型样本; 不携带IDH1 R132H突变的胶质瘤样本
T2 sequence (O75874 2-414 limits assumed): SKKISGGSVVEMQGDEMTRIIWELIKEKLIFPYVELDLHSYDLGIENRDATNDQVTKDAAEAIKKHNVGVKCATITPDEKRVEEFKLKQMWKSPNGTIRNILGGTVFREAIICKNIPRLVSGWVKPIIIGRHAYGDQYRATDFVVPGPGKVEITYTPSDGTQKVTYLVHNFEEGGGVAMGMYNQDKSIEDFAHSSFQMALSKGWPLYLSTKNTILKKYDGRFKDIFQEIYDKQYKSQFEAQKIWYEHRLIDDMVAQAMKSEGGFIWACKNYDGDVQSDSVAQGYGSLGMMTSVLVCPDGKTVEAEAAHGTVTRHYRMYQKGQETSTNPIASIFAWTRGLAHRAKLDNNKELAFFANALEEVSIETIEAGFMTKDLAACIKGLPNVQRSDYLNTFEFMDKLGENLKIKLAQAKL

[3] = target: T3, IDH1 R132H (mutant IDH1 in glioma tissue sections) (UniProt O75874 2-414); test: immunohistochemistry on glioma paraffin sections
T3 construct: Endogenous protein in patients' glioma paraffin sections; also called IDH1突变; IDH1 R132H突变
T3 sequence (O75874 2-414 R132H limits assumed): as the sequence (O75874 2-414 limits assumed) above, with R131H counted along it

B1: 10G5-1单克隆抗体 (anti-IDH1 R132H monoclonal antibody secreted by hybridoma 10G5-1, CGMCC No.15783) (antibody, V domains shown)
VH: QVQLQQPGTELVKPGASVHLSCKASGYTFTTYWMHWVKQRPGQGLEWIGDINPSNGETYYNEKFRNKATLTVDKSSRTAYMHLSSLSSEDSAVYYCARGFKDYWGQGTTLTVSS
VL: DVLMTQTPLSLPVSLGDQASISCRSSQTILYSDGVTYLEWYLQKPGQSPKLLIYKVSSRFSGVPDRFSGSGSGTDFTLKISRVVAEDLGIYYCFQGSHVPFTFGSGTKLEIK
notes: Mouse (BALB/c) hybridoma antibody purified on protein A; also called 10G5-1抗体; 1OG5-1抗体
fold lower 亲和力平衡常数 (KD) against H09 [1]: 10 fold
binding result [2]: no binding
binding result [3]: binds
